Test: soluble on expression in E. coli; label from the status in PepcDB or PDB records

Row | Sequence | soluble on expression in E. coli
1 | MSLRDKKGPVNKRVDFLSNKLNKYSIRKFTVGTASILIGSLMYLGTQQEAEAAENNIENPTTLKDNVQSKEVKIEEVTNKDTAPQGVEAKSEVTSNKDTIEHEASVKAEDISKKEDTPKEVANVAEVQPKSSVTHNAEAPKVRKARSVDEGSFDITRDSKNVVESTPITIQGKEHFEGYGSVDIQKNPTDLGVSEVTRFNVGNESNGLIGALQLKNKIDFSKDFNFKVRVANNHQSNTTGADGWGFLFSKGNAEEYLTNGGILGDKGLVNSGGFKIDTGYIYTSSMDKTEKQAGQGYRGYGAFVKNDSSGNSQMVGENIDKSKTNFLNYADNSTNTSDGKFHGQRLNDVILTYVASTGKMRAEYAGKTWETSITDLGLSKNQAYNFLITSSQRWGLNQGINANGWMRTDLKGSEFTFTPEAPKTITELEKKLKRFHSRKNVNLIRIEGHHHHHH | not soluble
2 | MSLVSIKDIARYCGVSAMTVSRALNNSDDIAEATKEKILKVCEELKYKPNSAAKSLITKKTNMIGLIIPDIANQYYANISKGVSSYIEKHGYGLILCNSNRKKPNEVKYLDFLSEGRVDGIIILPVKPRKEDYEDISRQIPMVMADNFAKGLEVNFVGIDNYAGAIKIITHMVNQGYKKIGVILGDKDSTASSERLNGYKKVLEDKGISYNEDIVIHSNSTFEDGFNIASILIEKGVDSIFAINDTVAMGVIKYCYEKGIKLPEELGLAGYDNIEQAAMLTIPLTTVDQDNKKIGTIAAKMLVDAIKGNAKKTEKIILEPTLVIRKSCGEEGHHHHHH | soluble
3 | MAVGAALPPIPEGAPVLIAGPTASGKSALALEIAERFGGVIVNADASQVYDCWRAISARPSPEEEARAPHLLYGHLPYDAPYSAGHWLREVTPLLDGTARPIIVGGTGLYFTALTEGMADIPATPPDVRAEADTLPLDRLLAGIDPATAAGLDRNNRARVQRAWEVERATGRALHLWQADTPPPPLPLARTVPLVLEVDKLWLWDRIARRFDQMLDQGALDEVAAMAARYDPALPAFKAIGVPELMAHLRGEITLDAARERASIATRQYAKRQRSWFRARMGDWHRLPVGGLEHHHHHH | not soluble
4 | MIGMAEVKLINIWKRFGDVTAVKDLSLEIKDGEFLVLLGPSGCGKTTTLRMIAGLEEPTRGQIYIEDNLVADPEKGVFVPPKERDVAMVFQSYALYPHMTVYDNIAFPLKLRKVPKQEIDKRVREVAEMLGLTELLNRKPRELSGGQRQRVALGRAIIRRPKVFLMDEPLSNLDAKLRVKMRAELKKLQRQLGVTTIYVTHDQVEAMTMGDRIAVMNKGELQQVGTPDEVYYKPVNTFVAGFIGSPPMNFLDATITDDGFLDFGEFKLKLLQDQFEVLEEENMVGKEVIFGIRPEDVHDASFTHIDVPEENTVKATVDIIENLGGEKIVHLRRGNISFTAKFPKESKVREGDEVSVVFDMKKIHIFRKDTEKAIF | soluble
5 | GMSRTLVLFDIDGTLLKVESMNRRVLADALIEVYGTEGSTGSHDFSGKMDGAIIYEVLSNVGLERAEIADKFDKAKETYIALFRERARREDITLLEGVRELLDALSSRSDVLLGLLTGNFEASGRHKLKLPGIDHYFPFGAFADDALDRNELPHIALERARRMTGANYSPSQIVIIGDTEHDIRCARELDARSIAVATGNFTMEELARHKPGTLFKNFAETDEVLASILTPKHS | soluble
6 | MGSDKIHHHHHHMKIYVDGREVIINDNERNLLEALKNVGIEIPNLCYLSEASIYGACRMCLVEINGQITTSCTLKPYEGMKVKTNTPEIYEMRRNILELILATHNRDCTTCDRNGSCKLQKYAEDFGIRKIRFEALKKEHVRDESAPVVRDTSKCILCGDCVRVCEEIQGVGVIEFAKRGFESVVTTAFDTPLIETECVLCGQCVAYCPTGALSIRNDIDKLIEALESDKIVIGMIAPAVRAAIQEEFGIDEDVAMAEKLVSFLKTIGFDKVFDVSFGADLVAYEEAHEFYERLKKGERLPQFTSCCPAWVKHAEHTYPQYLQNLSSVKSPQQALGTVIKKIYARKLGVPEEKIFLVSFMPCTAKKFEAEREEHEGIVDIVLTTRELAQLIKMSRIDINRVEPQPFDRPYGVSSQAGLGFGKAGGVFSCVLSVLNEEIGIEKVDVKSPEDGIRVAEVTLKDGTSFKGAVIYGLGKVKKFLEERKDVEIIEVMACNYGCVGGGGQPYPNDSRIREHRAKVLRDTMGIKSLLTPVENLFLMKLYEEDLKDEHTRHEILHTTYRPRRRYPEKDVEILPVPNGEKRTVKVCLGTSCYTKGSYEILKKLVDYVKENDMEGKIEVLGTFCVENCGASPNVIVDDKIIGGATFEKVLEELSKNG | not soluble
7 | MGSDKIHHHHHHMEENYRRYPIGIQNFEQLRNRNCVYVDKTELVYRLANTDSVYFLSRPRRFGKSLLVSTLEAYFQGKKDLFKGLAMERLEKDWNVYPVFHIDFSLTKYTTLFDLQEQLNLFLLRCEKVYGAEKEEKTPAARLQGMIRRAYEQTGLPVVVLIDEYDAPLLDSNSNIPLQQELRNELRKFFSPLKGLGQYLRFLFITGISKFSQMSIFSELNNLKNISMRDDFSAICGITERELLDELRPDIERMALANGETYEAACAHLKRQYDGYHFSKHCEDIYNPFSLFNAFDAKEYKNFWFSTGTPTFLIDLLQETDFDVRQLEGVEATDEQFDAPTERVTSPIPVLYQSGYLTIKGYDPEFQVYRLAYPNGEVRKGFIESLLPAYLELPGQSSTFYVVSFIRDLRKGDIESCLERTRSFFASIPNDLENKTEKHYQTIFYLLFRLMGMYVDSEVKSAVGRADVVIKMQDAIYVLEFKYDGTAREALAQINSRLYAVPYRKDGRRIVKVGINFDSATRTIGDWVIEVEDTVDNL | not soluble
8 | WKRGKISTQLDDDEFRAGMRKAQVIDVREKKEFDAGHILGARNIPYSQMKNRTQELRSDLPVYLYDQGRTFSGRAAMLLSKKGFTQLYILKNGYQRWTGKTKKTKY | soluble
9 | MSKKLTTAAGCPVAHNQNVQTAGKRGPQLLQDVWFLEKLAHFDREVIPERRMHAKGSGAYGTFTVTHDITKYTKAKIFSDIGKKTDMFARFSTVAGERGAADAERDIRGFSLKFYTEEGNWDLAGNNTPVFFLRDPLKFPDLNHAVKRDPRTNMRSAKNNWDFWTSLPEALHQVTIVMSDRGIPATYRHMHGFGSHTFSFINSDNERYWVKFHFVSQQGIKNLSDAEAGELVGNDRESHQRDLLDSIDNQDFPKWTLKVQIMPEADAATVPYNPFDLTKVWPHKDYPLIEVGEFELNRNPQNYFAEVEQAAFNPANVVPGISFSPDKMLQGRLFAYGDAQRYRLGVNHQHIPVNAPRCPVHSYHRDGAMRVDGNFGSTLGYEPNDQGQWAEQPDFSEPPLNLDGAAAHWDHREDEDYFSQPGDLFGLMTAEKQAILFDNTARNLNGVPKEIQLRHVTHCYKADPAYGEGIGKLLGFDISEYNS | soluble
10 | MLTSFGQILRKLFCIDCSERLLDMADKLGVSVAFLSSVKIGKKSVPVGIFVRTLENFSQQDLAEFKKLLEKVGKKRGTLYRHVGKSYSRTFIYTSRTLKKHT | not soluble
11 | GPGSMHSTPAKEAEAEGYMRSGKKHLQKKLLQFKANYGGAAEDFDKAARIYTNLRNYPKAREAWTQACEAHSKAHNDFNAANSMEKLGDLASQCICESQSTMSSGSTAGMTAQLSEHLFQDAIHAYEEASKLYGVATNGSKQAAVLKKAADLISRSLATVHYRRPGTSGATTVDTAYLQKEYKRIIPELIELMERNWAATESKPFGLPDIYRSHVLLHLRSGDVEGAVHAEKRMIGIVSTSPADGTYDDSKNLFRILNQPSNAAKVGLEIVVLCLSTSVDDGYTWANIEMGRLGAVFGFCGSSEERAAAALLAAYAERDEDALQEALKTNTCFNFLAADVSRIAKKLTLGSKGHSKETGASVAAAGGPERSAAPPSSSQAPVDASETDSEDLR | soluble
12 | MSLRSKLFLILTLHRSGSSATAGVLYHLGVHMGQHLLKENESNPKGHFENEEFVAVNDRILHTIGGSWKKPPSPELIKQLKIPRRQVETFLLQHAKPAWGIKDPRMLLTFDLWKGPMERVADITYIIVHRPIKESIASLVRRNDMTELEAQQILLPYLGNKQRIREQLVEEGADIIDVHFSDLLQHPDELVAAVNQRLGRAPKKRLDDVRLFLDHSLKHEGHHHHHH | soluble
13 | GPGSMFDLTGRKALVTGATGGLGEAIARALHAQGAIVGLHGTREEKLKELAAELGERIFVFPANLSDREAVKALGQKAEEEMGGVDILVNNAGITRDGLFVRMSDEDWDAVLTVNLTSVFNLTRELTHPMMRRRNGRIINITSIVGVTGNPGQANYCASKAGLIGFSKSLAQEIASRNVTVNCIAPGFIESAMTGKLNEKQKDAIMGNIPMKRMGVGADIAAAVVYLASDEAAYVTGQTLHVNGGMAMI | soluble
14 | MDYLNYEEIQSLKNSLLHNIKHTYISRYMILTALYTGMRPGEIAVLTWSDIDFKNQTININKSYNHDKGRVDNYDSSEIDKSTKNTNSVRIIKVDKKFLDILSQLKQNDHEKIFIGKDGTIPTSNAVNKVWRKQLEKLNIDKPSFHFHSVRHTHVALLPFKGVPLYAISKRLGHANMSTTAKKYAYMLDELKQQVRLEHHHHHH | soluble
15 | MLKQNTEREGRTIEQEDLKNLENEITEARENEDKYFSTFKGVRGQLIKECQEMKDEAFKIAYDGVMADSKHLENVKAGRLTEVQHEELAKEKGQEASEKALPKTPLGVAIMLKHYLRFIRVKPEAQGQKAPLYFFHPDHGVWLEDNEFLQDLISVIFPNATEKQAFDTLYKIARQSQLKEIQREYTVIGNQLYNYKTGQFEELTPDITVTRKIKTGYNKKAKEPTIKGWKPTAWLLELFDGDAELYNLAIQIIKASITGQSLQKIFWLFGEGGTGKGTFQQLLINLVGMDNVASLKITELAKSRFTTSILLGKSIVIGDDIQKDAVIKDTSDIFSLATGDIMTIEDKGKRPYSIRLNMTVVQSSNGLPRMNGDKSAIDRRFRILPFTKVFKGKPNKAIRNDYINRKEVLEYLLKLAIETPITDINPKASIEILEEHHKEMNPVIDFVSKFFTDELTSEFIPNSFVYHVWKGFLEYYDIKQIKSERGLHKEIKSNLPEGFEAGQKVIPVGRQLHTGFYPKEDLPLFASASYANGRASPEKRKKPKNERGYYNHWPTHKKQKKT | soluble
16 | SGPLDEYAYSWANHLLANPVNCATLEITLGPAEFLLRSDAQLAIAGGDLNATLDGRPIANWSRFYAKQGQTLRFGLPRNGLRAYLAVQGGFTVSPQLGSVSTHVRQGLGGLTSQGLALQTGDDLVFSAQQIAQKPVQMTFRFRPDYNLPLRLRVIESYQYQAFSPSAMESFYRSEFIVTPNSDRMGYRLQGETISPPDQAILSEGIALGAIQVPPNGQPIILLNDRQTIGGYPKLGCVARIDLPRLAQAKPGHSVRFVAGDLAGLQAVWCQWARFFGY | not soluble
17 | MSSVPRFWRNLGSRYNLEGTRCKECGEYFYPPRNVCVNCRRMGELEPFKFKGTGEIVSYTLIHTGAEGFEGQAPYTLAIIKLDEGPRLTSQVVGNTDNIQIGTRVRSVFRKLGEDGERGMIYYGTKFVPVDALEHHHHHH | soluble
18 | MIWIAVDRVGKKFINCSFGSRGTETGQLLWEKLEKKEIGEVMTDHWRAYAAFLPETIHTQSKAETYTVEGYNSILRHFLARLRRKTKCYTKSLEMLKYSVLLLMKYRNRELTIFHASSVKLEHHHHHH | not soluble
19 | MMDRVCRLSLAALLAGSGAAYADGSTLTVAYYGGNWGEAFDACVAQPFTEKTGIRVVAEIGNSTTTLAKLQQQSGDAVIDVAYMDGGISELAQEAGVLAPIDLAAIPNAASYLPQAVYKAGDEVFAVSAGYYSLGLIYNTSEVTETPDTWLSLWDESYAGAVALPSPSNSSGVPFVLFLARSVLGDTSESLDPTFAKLKELDTGLLFDSSGAASNAFQSSEVIIGAHFNVGAWDLTDGGLPIGFSVPKEGVWATDARMHVVKGTKNPEGAAQYLDMAASPEAAACLAERLYLGPPVTGVTLAPDVERKLPWGEGGSVEKLHLSDWTEVNARRAAIVERWNREIAN | not soluble
